# Measured values: the DeepSol protein solubility set
# Assay: soluble on expression in E. coli; label from the status in PepcDB or PDB records
row,Sequence,soluble on expression in E. coli
1,SVISESMDILFRIRGGLDLAFQLATPNEIFLKKALKHVLSDLSTKLSSNALVFRICHSSVYIWPSSDINTIPGELTDASACKTILRFIQFEPEEDIKRKFMRKKDKKLSDMHQIVNIDLMLEMSTSLAAVTPIIERESGGHHYVNMTLPVDAVISVAPEETWGKVRKLLVDAIHNQLTDMEKCILKYMKGTSIVVPEPLHFLLPGKKNLVTISYPSGIPDGQLQAYRKELHDLFNLPHDRPYFKRSNAYHFPDEPYKDGYIRNPHTYLNPPNMETGMIYVVQGIYGYHHYMQDRIDDNGWGCAYRSLQTICSWFKHQGYTERSIPTHREIQQALVDAGDKPATFVGSRQWIGSIEVQLVLNQLIGITSKILFVSQGSEIASQGRELANHFQSEGTPVMIGGGVLAHTILGVAWNEITGQIKFLILDPHYTGAEDLQVILEKGWCGWKGPDFWNKDAYYNLCLPQRPNMI,not soluble
2,MSLACGEFSLIARYFDRVRSSRLDVELGIGDDCALLNIPEKQTLAISTDTLVAGNHFLPDIDPADLAYKALAVNLSDLAAMGADPAWLTLALTLPDVDEAWLESFSDSLFDLLNYYDMQLIGGDTTRGPLSMTLGIHGFVPMGRALTRSGAKPGDWIYVTGTPGDSAAGLAILQNRLQVADAKDADYLIKRHLRPSPRILQGQALRDLANSAIDLSDGLISDLGHIVKASDCGARIDLALLPFSDALSRHVEPEQALRWALSGGEDYELCFTVPELNRGALDVALGHLGVPFTCIGQMTADIEGLCFIRDGEPVTLDWKGYDHFATPEGGSHHHHHH,soluble
3,MQKPVMNPKQRIFIRGLGLPSSYVEAQKKRDEENAKN,not soluble
4,MQEGVKVVVDSRELRSEVVKRLKLLGVKLEVKTLDVGDYIISEDVAIERKSANDLIQSIIDGGLFDQVKRLKEAYSRPIMIVEGSLYGIRNVHPNAIRGAIAAVTVDFGVPIIFSSTPEETAQYIFLIAKREQEEREKPVRIR,soluble
5,GPGSMLALSQGLPTVDPALVKAFKRAANNASTSGDVDDDSRRQEVARINKEAQKAWRAEEKSFIPAIYLRTRDPSAEDVLQHLRVTSKAFELNLRFRDIEQLDEMQVKLWSLLTADKSKQTVTISEFTEIMNKLKVWQGQRFEPTPKTSPCREISVRSAQQECPVDTTPLDEVMYVGVAKRPRPSLQLFLSCPRSHAGGVEVAHIYQRFAKQVSLVKCEAELLMWDTNNDGRLTEDELESYVRDLVSRVDALRDISNDILPFYCCAVSRRIFWALDPGMRGTIRIDALLQSPLMDEWVSLQLMREDLPRNWFSAAITSHLYDKFLLLDTRNQGTLNAANMKLYKKGLPTVRDDGLPRGVGPLSSLFIDRFFETSVMMACSELDFRKFVDFVIAVEFLPACQRPLFFWNILDIEGCGVLRPVHVNSFFRETHSKLVEAGLEMPSRETVVQEVFDLIPTAEPLRITREEFVKAPQAGLFVALLIDCLSFWAYENREQR,not soluble
6,GPGSMDTQGIRAVSEYVARGHGSGIVWAWCAASPAAFASMINSPSRTRQAAHERSVHYLSSYEQKSGCVCTVRVDRMGITLNEFHHTVPLWLVTWHTQLLYRLFGPVGVAVHVTDLDSLVLNSLLSAWEGTPVQVTALTSRHRLSTCVSAHRRSTGRVFSVLAGLQDLVLLPSPSVHGSLVVAEYAPLLRRVTASKCCVEYLKPLSQLQHLQEVQLSQTLIRDAELRILAQLPLLTTLDVSSCPHLSSLEPLACAASLRILRASSCERLMLVAQLGTLATLRIVDLSGNVFRPTEFASFITQPTLHLQAGYFAHMRWPRDDPPSTQVLGSVKHLHLSYGTVPNIRWLCGAHSLEQLCLDHTNVTAVDMAVLVQHTPLLSVLSLSYCEHLHTNLDFTRSLHFLAMLTITRSSLPSPFLELVELQQSLSLTLS,not soluble
7,MSLSIRYIVKTDVSETFEIIKAGQVGSNIVFSEIRTFDFGELATLACEKFYFRSSNRAALFVNINNFHGETEVTIISTGSSNGFFTGIDWGAAFDYMHSVVADLKRVAIREVKMEKQEEGHHHHHH,soluble
8,MRIGLFTDTYFPQVSGVATSIRTLKTQLEKMGHNVFIFTTTDRDVDRYEDWQIIRIPSVPFFAFKDRRVAYRGFSKALEIAKQYKLDIIHTQTEFSLGLLGIAIAHELKIPVVHTYHTQYEDYVRYIAKGMVIRPSMVKYIVRGFMSDLDGVICPSEIVYDLLLKYKVAAEKRVIPTGIELEKFQRPEITEEDVSDLRAKLGISSDETMLLSLSRVSYEKNIQAVMAALPSVLEEEDKVRLVVAGDGPYLPHLKSQAKKLGIEDKVVFTGMIAPGETALYYKAADFFISASTSETQGLTYLEALASGTPIIAHGNTYLDNIITDKMFGILYYHDNDLAGAILEAAIVTPEKDETKWAEKLYEISAENFGKRVYEYYLDLTISKDFHNDLNGEDSTMKRLTRMVTHLPTKAITLPVNGSVRIIKGSAKQVKKIRNIKKFLDLEHHHHHH,soluble
9,MPSSRRVRSRCCAFGITKRFACIRPACQRARMDAQMTNFETRLRENAAKTEALLGHLLSGEARADEITRPQNLLEAMRHGVLNGGKRLRPFLVIESVALLGGDAEAGLHVGAALECLHCYSLVHDDLPAMDDDDLRRGQPTVHRKFDEATAILAGDSLLTLAFDIIASDDNPLAAERKAALVISLARAAGIGGMAGGQALDLAAEKKAPDEDGIITLQAMKTGALLRFACEAGAIIAGSNQAERQRLRLFGEKIGLSFQLADDLLDLTADAATMGKATGKDAARGKGTLVALRGEAWAREKLQE,soluble
10,MGSDKIHHHHHHMSSNNRKKLLLMGRSGSGKSSMRSIIFSNYSAFDTRRLGATIDVEHSHLRFLGNMTLNLWDCGGQDVFMENYFTKQKDHIFQMVQVLIHVFDVESTEVLKDIEIFAKALKQLRKYSPDAKIFVLLHKMDLVQLDKREELFQIMMKNLSETSSEFGFPNLIGFPTSIWDESLYKAWSQIVCSLIPNMSNHQSNLKKFKEIMNALEIILFERTTFLVICSSNGENSNENHDSSDNNNVLLDPKRFEKISNIMKNFKQSCTKLKSGFKTLILNNNIYVSELSSNMVCFIVLKDMNIPQELVLENIKKAKEFFQ,not soluble
11,MPRIEDRLINRTPRNFTIIGNSPNSMSRGKRPHTTPIEVHLLREGIIESQHWAEATVYDDRGRVLMLAGDSTSNAFIRSSLKPFQALAVTSTGTMERYGLTDKDLAIMCGSHQGTIEQARQVFNILWRADIEPQALQCPIPAGQESPLYHGCSGKHAGMLAVCQQQDWPLHSYLQQNSPIQKLILSKVADLLGMPGAELIAAHDDCGAPTYTMELGQIAHLYALLASGQQLGLERVARAMTYYPYFVAGEGCFDTELMQQMEGELVSKSGAEGVQCVGRVGEGLGLAIKVKDGSKRAKYAVAIHLLQQMGWIPPQVAETLSEKFVRLGKYKRLEVIGELAMLLEHHHHHH,not soluble
12,MAHHHHHHMQDEHKFNAEDRRRAPPPNTPERALDYHERTNDDKLIAHASQVNHLSKPRHRNCLTEFIIVETPVVSFLVDSSDPSLCLLRRSGRQGTKNEEKGVH,soluble
13,AIAGSRGVLSIIFDLDNTLIDTAGAGRTAIQKVCELLKSTHVQESHIRDICERFLRKLLQESFDPSEGKTIDDVRIQHWCEALQETPGTDPDPALASRCYYTWKNTRSQALSLSSEVRALLEELQKNYKLLLLTNGDTQTQREKIEAVRCEGLFSLVVVGGDRPEQKPARSIFTHCFESAGVRPQDCIMVGDSLTTDIQGGINAGVRATVWINAGSKSLPQDSVTPDYTLPTVLHLNEVLAQLA,soluble
14,MSILKNAGEPVISMRYIPYNGGAVKETWWDRDSDRKRLLISLGTVKPMVDGLELISWVMDSANEVDADIILQLAINARTGLRKLPSNVRLVDWIPMGVFLNGADGFIHHGGAGNTLTALYSGIPQIVFGEGADRSVNAEIVAKRGCGIIPDKHGLTSDLVNRLLYDDSLRFCSDQVAAEMAEQPSPAEIAEVLMRKLKNNGKQL,not soluble
15,MKEACSSSSHVPVSDSKYILKSELLSLLKTYNCYHEGRSFQLRHREEEGTLIIEGLLNIAWGLRRPIRLQMQDDRERVHLPSATWVPERLSYLQKEASPQDSKVPTEEPGTQPANKAEVSGDSSGALEGEEEEVPQLMRTKSDASCIIQRRSKSRAPSEAQKIRRHRFSINGHFYNHKVKSPSALSWALKLRVQELFPSTEERAPNIQHSSHSSIR,soluble
16,MMGNDSYSSNRGSSRDVLSFLQNFLGGFYAKYGIEVKLVGGLSLSKFYYAFDAERNQFLARHFLPVLSYIKKDFNARAALGIVNVDIYEPGFNFIFGLAHPGLKVAVVSLYRLYPEFYGNPPDRKLLKERALKEVMHELGHVFGLGHCPNPKCVMHFSNSIIDTDIKSWMYCESCLRKLEKNLARSHVLEHHHHHH,not soluble
17,MIIKPRIRGFICTTTHPVGCEANVKEQIAYTKAQGPIKNAPKRVLVVGASSGYGLSSRIAAAFGGGASTIGVFFEKEGTEKKPGTAGFYNAAAFEKLAREEGLYAKSLNGDAFSNEAKQKTIDLIKEDLGQVDMVVYSLASPVRKMPETGELIRSALKPIGETYTSTAVDTNKDVIIEASVEPATEEEIKDTVTVMGGEDWELWINALSDAGVLAEGCKTVAYSYIGTELTWPIYWDGALGKAKMDLDRAAKALNEKLGATGGSANVAVLKSVVTQASSAIPVMPLYIAMVFKKMREEGVHEGCMEQIYRMFSQRLYKEDGSAAEVDDMNRLRLDDWELREDIQQHCRELWPQITTENLKELTDYVEYKEEFLKLFGFGVEGVDYEADVNPAVETDFIQI,soluble
18,MRDVQKQYNKQEGFVQGYSIIDSYSEDEIPKDGKRSTIQLVHEMGLEKARRIYGENYQCLVATQCDGKSGLYHNHLISNAVGNDGKSQRGDMTKWTKLAEISDQVMIDYGYTPLDKNNWRLNKTRKAEARSKGEYVSPNERKARKNGMTLAKDEVREQIQKVIDDETVKSFEDFKQMLNEEYQIGVEDAGTKDGENIKYSFSYTNKKGETSEKTIKAKTLSKEDYTLSGVKSKIEDKLLETGNFEINENDLTQQQQQMLSNLIVPEDDEDELELEFDDESLAFLDQINEEVKEYGREKHSSKATRNNQRVEKQHRDHQRHVENNERSTTRTKSSSKRAKDKDAGFELG,not soluble
19,MSLKIVLIAPYRDLLETAITVKKDLNVDIELELGDLSEGVKVAREWEKKGVDIIISRGGTYQLIKESVSVPVVEIKVSAFDILRQFNGLIGCKEIIGVAGYKNVIYGCEVIGEILDLNLIKVVIEKEEEGLRQVAAAKEKGVSLIIGDTIGAYSAKRLGLKSRLITSGKEAVAAAVSESFRLAQALKAEKEKAEQIRTIVDFVHDGIIAIDKEGRVSIYNRMAEKIFKRPPAEAVGRKVETVVPNTRLYEVIETGKPQIGELQEVLGTMITTNRVPIVVGNEVVGAVATFQDVTMLQKVEQKIRRQLADRGLVAMYTFDEGHHHHHH,soluble
20,MAHHHHHHMFAFLNVAFMAAIRRKLKELKPPARRQSHRCAPEVYSQEGPTRHYFLPSVERIDKKTCISHRLLYIPEVENFPLVDGFFFVKSNPMTLVGLRMTTAGEHHTAASTVRQFTECLAAYFNGWEELSREMSWEMIYVQHADSTPMNDWQRCDVDNSNNLTEEGREIAAFWNEKVRQYQVSI,not soluble
21,MLMNEFEKACETLRKFMAYMLEKDMKSWTELWDENAVFEFPYAPEGSPKRIEGKAAIYDYIKDYPKQIHLSSFTAPTVYRSADSNTVIAEFQCDGHVIETGLPYRQSYISVIETRDGRIVRYRDYWNPLVVKEAFGGSFLQTEESGK,soluble
